Data published in PMC11863921 (BMC Biology, 2025).
Values belong to the substance of their own block, whether it stands above or below them.

What was measured:
[1] = target: Acanthaster cf. solaris relaxin family peptide receptor/leucine-rich repeat G protein-coupled receptor 3, N-terminally modified (prolactin signal peptide, FLAG tag) (Acanthaster cf. solaris)
AsolRXFP/LGR3 = target: T1, AsolRXFP/LGR3 (Acanthaster planci, UniProt A0A8B7XXQ8); assay: CRE reporter gene assay in CHO cells stably expressing AsolRXFP/LGR3; assay type: cell-based, A. cf. solaris; settings: CHO-AsolRXFP/LGR3 cells, increasing concentrations
T1 sequence (A0A8B7XXQ8 1-847): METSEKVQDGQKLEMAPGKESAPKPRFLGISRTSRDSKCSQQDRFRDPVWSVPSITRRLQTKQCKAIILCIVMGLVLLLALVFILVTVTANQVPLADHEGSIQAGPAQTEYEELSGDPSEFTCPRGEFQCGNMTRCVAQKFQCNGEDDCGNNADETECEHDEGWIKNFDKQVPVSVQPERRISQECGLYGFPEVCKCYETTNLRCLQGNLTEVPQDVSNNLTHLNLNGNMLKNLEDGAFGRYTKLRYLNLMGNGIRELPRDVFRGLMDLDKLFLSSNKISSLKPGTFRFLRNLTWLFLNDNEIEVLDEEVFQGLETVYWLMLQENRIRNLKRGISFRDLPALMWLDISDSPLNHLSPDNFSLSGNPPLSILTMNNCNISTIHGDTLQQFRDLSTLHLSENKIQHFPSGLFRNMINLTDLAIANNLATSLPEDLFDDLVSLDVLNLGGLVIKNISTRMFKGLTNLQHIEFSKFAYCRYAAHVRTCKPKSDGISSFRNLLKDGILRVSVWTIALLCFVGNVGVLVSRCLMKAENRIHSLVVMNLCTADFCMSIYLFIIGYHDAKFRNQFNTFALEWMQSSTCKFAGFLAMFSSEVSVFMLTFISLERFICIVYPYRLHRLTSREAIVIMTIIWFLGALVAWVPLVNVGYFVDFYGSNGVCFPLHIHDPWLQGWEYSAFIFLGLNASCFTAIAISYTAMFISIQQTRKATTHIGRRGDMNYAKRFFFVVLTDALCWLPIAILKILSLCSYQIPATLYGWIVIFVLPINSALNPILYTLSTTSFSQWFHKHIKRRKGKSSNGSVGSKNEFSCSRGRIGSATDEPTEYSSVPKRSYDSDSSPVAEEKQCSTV
Method: Human embryonic kidney (HEK) 293T cells were grown in complete Dulbecco’s modified Eagle medium (DMEM; Gibco) and Chinese hamster ovary (CHO) cells in complete DMEM/F12 (Gibco). Media was supplemented with 10% fetal bovine serum, 1% penicillin/streptomycin, and 1% L‐glutamine (complete media; All from Gibco). HEK-293T cells were transfected with LipofectAMINE 2000 (Invitrogen) and CHO cells with CHO TransIT and CHO-Mojo (Mirus), both according to the manufacturer’s instructions.
CHO and HEK293T cells stably expressing AsolRXFP/LGR3 were generated by lentiviral transduction. HEK293T cells were plated in 10 cm dishes for transfection with pLenti X1-Ef1α-COT-RXFP-like 2-IRES-GFP along with the lentiviral packaging and envelope plasmids pMDL, pRSV‐Rev, and pCMV‐VSV‐G, using Lipofectamine 2000. The following day, media containing lentivirus was harvested and filtered through a 0.45 μm syringe filter. Fresh CHO and HEK293T cells in 10 cm plates were transduced by replacing the cell culture media with the filtered media containing lentivirus, mixed with 4 μg/mL hexadimethrine bromide (Polybrene) to increase transduction efficiency. Three rounds of transduction were performed over 32 h, before cells were allowed to recover for three days in complete media. Transduced cells were sorted from non-transduced cells using the GFP reporter by fluorescence-activated cell sorting (FACS), using a Becton Dickinson FACSAria III as previously described. Single, live cells with low GFP expression were selected to represent low AsolRXFP/LGR3 expression and were subsequently grown to confluency in a T175 flask and cryopreserved.
The ability of the A. cf. solaris receptors to respond to A. cf. solaris RGP1 and RGP2 peptides was tested using a pCRE β-galactosidase reporter gene assay in CHO cells stably expressing AsolRXFP/LGR3 or HEK-293T cells transfected with AsolRXFP/LGR4 (long) or AsolRXFP/LGR4 (short), as described in detail previously. Importantly, the pCRE β-galactosidase reporter gene assay measures both Gs and Gq activation downstream of GPCR activation by monitoring CREB-mediated gene transcription. Cells were seeded in 96 well plates and were left to grow overnight at 37 °C in an incubator with 5% CO2. The next day the cells were transfected with different amounts of the pCRE reporter gene DNA [57] and/or pcDNA3.1 receptor constructs, as described above, and were left to grow overnight in an incubator. Triplicate wells in each plate were transfected with the equivalent amount of pCRE reporter gene DNA and pcDNA3.1 without a receptor-encoding insert as the background CRE activity control. The next day cells were exposed in triplicate wells to increasing concentrations of peptides diluted in media for 6 h at 37 °C in an incubator. Triplicate parallel wells contained 5 µM forskolin and blank media as positive and negative controls, respectively. At the end of the incubation period, the media was aspirated, and the plate was stored at − 80 °C until development. Plates were thawed for the development of β-galactosidase activity, as described previously, with absorbance being read at 570 nm on an Epoch 2 microplate reader. The data were analyzed as the percentage of the response induced by 5 µM forskolin and pooled followed by fitting to a three-parameter sigmoidal dose–response curve using GraphPad Prism 10. Experiments were performed at least three times with triplicate determinations in each assay (Additional file 17: Dataset S10).

[2] = system: ovarian fragments of A. cf. solaris; assay: In vitro spawning assay with ovarian fragments of A. cf. solaris; settings: 1 h, semi-quantitative
Description: Adult A. cf. solaris were collected from the Great Barrier Reef by Pacific Marine Group divers associated with the Great Barrier Reef Marine Park Authority (GBRMPA) before being transported to the University of the Sunshine Coast aquarium facility. Animals were briefly maintained in a re-circulating protein-skimmed and aerated saltwater system of approximately 1500 L. The animals used were approximately 25–55 cm in diameter and kept unfed for the duration of the experiment. The gender and ovarian maturation stage was determined by using a minor gonad tissue biopsy technique and, thereafter, animals were individually segregated in a flowthrough aerated tank filled with approximately 55 L of filtered seawater for a minimum of 24 h to recover and acclimatize.
AsoRGP1 and AsoRGP2 were synthesized as described previously. In addition, a modified form of AsoRGP2 was synthesized in which the N-terminal residue of the A-chain (glutamine, Q) was substituted with pyroglutamate (pQ), recognizing the possibility of this potential post-translational modification. […] In vitro spawning assays using ovarian fragments were performed following procedures described previously. In brief, the ovaries were excised and cut using scissors into small fragments containing only a few lobes. The ovarian fragments were then incubated in artificial seawater containing RGP-type peptides at a range of concentrations (2 × 10^−10–2 × 10^−6 M) for 1 h. As a control experiment, ovarian fragments were incubated in artificial seawater alone. The samples were examined to determine whether or not in vitro spawning had occurred and were scored as follows: (+ + +) spawning occurred and most oocytes had matured; (+ +) about 50% of oocytes had matured, ( +) a few oocytes had matured and ( −): no spawning occurred. […] Means ± standard error of mean (SEM) were determined from four separate assays using ovaries from four different animals.

[3] = target: Asterias rubens relaxin family peptide receptor/leucine-rich repeat G protein-coupled receptor 3 (isoform X2) (Asterias rubens)
[4] = target: modified ArubRXFP/LGR3 (N-terminal region with the predicted internal signal peptide replaced by the prolactin precursor signal peptide) (Asterias rubens)

- pEC50 of CRE reporter gene activation in CHO-AsolRXFP/LGR3 cells [1]: 7.8 pEC50
- potency (EC50) of CRE reporter gene activation in CHO-AsolRXFP/LGR3 cells [1]: 16 nM
Substance: Acanthaster cf. solaris relaxin-like gonad-stimulating peptide 1 (ligand)

Substance: recombinant human relaxin-2 [H2 relaxin, reference compound]
- cAMP activity / CRE reporter gene activation (AsolRXFP/LGR3): No response

Substance: Acanthaster cf. solaris Relaxin-like gonad-stimulating peptide 2 modified with pyroglutamate replacing glutamine at the N-terminus of the A-chain [Asol-pQ-RGP2]
- relative potency in inducing shedding of mature eggs / spawning ([2]; compared with RGP1 or unmodified RGP2): less potent than AsolRGP1 and AsolRGP2
- relative potency in inducing shedding of mature eggs / spawning ([2]; compared with RGP1 or unmodified RGP2, listed as Asol-pQ-RGP): less potent than unmodified AsolRGP2

- EC50 of peptide-induced luminescence (GFP-apoaequorin G5A, chimeric G-protein GqS5) in CHO-K1 cells transfected with ArubRXFP/LGR3, 10^-14 to 10^-5 M [3]: 383 nM
- EC50 of peptide-induced luminescence (GFP-apoaequorin G5A, chimeric G-protein GqS5) in CHO-K1 cells transfected with modified ArubRXFP/LGR3 [4]: 510 nM
Substance: Asterias rubens relaxin-like gonad-stimulating peptide 2 (ligand)
